Assay: soluble on expression in E. coli; label from the status in PepcDB or PDB records
In the case of “MAHHHHHHMQSALRSFSEAAVGLGTSQEKLAAFIAFTNQEKLRVPQLALLRELRRQLVAEEAIAERGRHHQQPDYGVSKRSSNASAAYQDSGDQNAHLSDLRKVNVLCSSKTEKSLQCSKTLSLNHQRGDSTTGAHKTRFQSPRFSSLKSVPFAQAGAANDEYDEDIRGFGARDFAPTPTPSGKLPYKPRDVCLLNSSYFANRSIRSDGSNPCGAPLPTSSPGTPSPSWRGAMTATAFAKLPAPSQQPLLAVDSSLGTVIDVDSEFSLVREAEDTAESRFAPKQDLSIVSMNSSQLELLNIAELAASSSEAALAQPPAAAVLTGIREKVADGSLSKHTVTLFHESNEKRSRGVAASTAAEVAVASVTASIAERKPAPSSQPSTQRGLCGYTNPGNFASLLVPNVLARPVSPPAERTVAPFSLRVAPASTSPSDKEKAVTLEQQEGMASTTAVTIGSTDSAGPAAASVASRLPSPPLITQAEENDGFVYYCANPSHSVIDSYAGRRKLLAVTVKL”, the “soluble on expression in E. coli” value is reported as “not soluble”.
In the case of “MAHHHHHHMQTNVLERIRALEADIERCIDSIVQQDLFAASIENERHRILLDHFTLQQVGIVRSTAEKLLDVYLDEDDIVQVQNAPAESPDNIAAAVKEFEAKIADIREYHHIYRDLPPVKDELAVPSPRLLDDIFTVHERYGACFDMDAHYNRYSAFMVHTKTLAEGCVSASAEVKKELAPLSPSSVLKWSSMWPGRLDFFSFTKALPQLLLHEVEAHRKIVGFALYKPFVAELLAYLEGFYRRIHPLKPAALERLMAEVESDAEKYWASLVEVKAEVTSVAATTAAASTEDEQADVQDVEDERVEEREAGGAAGSSSKGQTAAPVRIAVGNKVACGLAIPPSLRQHVKKFSLWPLPLIEKLIEDVGQASGTSDGAVASTSKLPTSVADVKMVCLMEAKAAALLQSFLYTTLETTNTSLLRDYSRTLEELENDREVAEQEFLDSLEEVRKNSADTMEGTVAHAAEYNLKLALEDSKGSRRGRHGKASAPAPVAAAPAAPELPLEEEEEQLIGENGEPIPRWLAQLHQLDKMFRCDVCGGTIYKGPKVFREHFGAERHAEGLRRLGVMHHLKSYEGITSIRQVVEMREQLTGGESGFRKRLRDNTDNEEIQDARGHVVTAKEYLRLQQRRR”, the “soluble on expression in E. coli” value is reported as “not soluble”.
With “MAHHHHHHMRFLSSSAVSPSPIRPSTGGASGKERLHHELPILHWRAGGGGEVGGGQHDDADSSDEYNEAHLCCDDWASSPAEPAAAAATFQTRQSDTPDGLHVDSDDDDNADDDGGEDTAGQTWIEEALRRAEAKCAVLRLELTFATERAVAAEANARARERECAELHALASRMQAQLAAAQMTAEWATANTRADAEVQVAACTASLDDIAASAFSSPNSPNRLGTTSLSMRKGTALADGTVWRRRHDIVAQELATLKVSMAEQLAVLDRLGMQPPFSEELVCAAERRLRHVKVAHAPGTAMKASQPDATIPGTPHTLTRSTCVDSAASADLSAGGASVTATTKKIQVRNGNKIAALLNLRKQNRHQEKPAAAAADAMATGVTDSATTPSTSAPPVKRDGSEDCRTTLDAKENHYVV” the “soluble on expression in E. coli” value was “not soluble”.
For “MAHHHHHHMRLYNSLKQELVAATGAKMLGSGGLIDWSKHQVFDNPSDISQTFNEIIDMLAEYFDVDVYATRLNYYRDGTQWKPQHHDSHAYGGRALREDFTVGLSLGATRSLLFVHEASQRDFNFPQLNGDCFAFTGEVNSLFTHGVPRVHTPTGDRFSIIAWGRRRNLNERNGGVPSSAAAQVKGYRINTMEDAVEVAKQLVAAEPGAAAAKKAMPPPCASGDASSGGVATATRPAKRHKRRLQ”, the “soluble on expression in E. coli” value was “soluble”.
With “MAHHHHHHMRPKKSAFKLAQRGERHLLHGNSEVSNFYGISESGFSNSRPPPYLLRFDKCNDIIAYTNEVDSECLKQIKNLAMLDIIKGHVTILPDVHLGKGIIIGSVFLTKDFIIPNGVGVDIGCGVLCVKINKLKKKNLREHIINNIYKKIKRNVPLSFDSHEKEVFDAKKVLDGLVAKYASRNMAHIMTPRHLKQMGTLGGGNHFIEIAYDASDGGEEALSGNQSGETHQNDAPHSYTSEQNHSPESDIYILIHSGSRNIGKRTAEFYDELASQESKVKRNDLAYLDLKKEQGQNYLKDMQLCLEYAKCNRIYMMKIIERIIYEEVNCTLDWQSVINIHHNFCNQELVTYVHSGEVKREYMYVTRKGATSSKKNQLGVIPGNMKVGSYIVRGKGNKLSYSSCSHGCGRVLSRTHAKKIINQTDFVNIMRGVRCDTNARIRDEAPQAYKNLGQVLRNQDSLVHVVRRLLPLINVKGE” the “soluble on expression in E. coli” value was “not soluble”.
For “MAHHHHHHMRPSSHRRPKSSAASDVGRRIRYSDAPPWDRSIRVNGDRALSAGRASRRGPEMMKAKLQGTPARPSHCNLVTTQAATLVATVPPVNEPQVELMSQLQDVVVRLSQSAVGEKQRLAHMQQRLDAYAALMREQDRMIDELRGMNIRLQKERDALILFRQQSLNHDLHLMNNLENDGGIDEEARRAYAKYEGQNNSYGTPCNGSLGAMTPRSRGFVRSLVAQLRDERRKRLEVEEQSSRMIGEQQLTIQRLEDRLRPQVVAPRSVLVARLESPHVSSHQRASNEEKDAVNTPLQCPCVDSVSAPMSSPNFSVVNQEKRLTEVNPMAPAVPPIPLPERNKEAVITEQVHQSPAVSMDQQITPPLEVPLKIHSTSYDDAAAILFDIRKRHGL”, the “soluble on expression in E. coli” value was “not soluble”.
For “MAHHHHHHMRRFCTARVSSYVKRAPLLLPRGGRRWRSGAGTTADGGGEKEYIADSFESTAGSNAYAAMELAAEARREIHELWLSAETALEREKRVQQVAALIEKYKLDPSTPREADVSRGLGDAFDRLLLLCLPLGKTDAKGTDNLERLMHLAGRNGRELSVRTIQHLFARTDSFAEALAVFYTMRRCHVAMNMEAYYSMLYSLQRLEEEGWGQHFRNEYEENGAPSEQAMDFIVKGISNALLPENKPWLGRVMFQDRNVPDRRYDTRDFDELDTAWTQRYKSGTPAGAH”, the “soluble on expression in E. coli” value was “not soluble”.
With “MAHHHHHHMRRSSMKFGLRQILSEELGKAAIFLRFKANEYIASTARACQTLTGAETNPEQANKRRKHRQVYEEILRQRQQVAQEAARRAMEGKSLRERLMASASAALKGLKEATSTNAGALALLQHCTAAHAAEVAVEQGIDVKSVTMQVEERKTGSQVGSETVVVGYIDAPNTSEEEMMAFAEQLSKKCPMANAMRGKIEWRRANGEVQHNDEQTTGNDNSVGSTSDKAGDAGSIPHGMPGTRYYSHESMRRGAGGVGDGDELHLPGVTKGSGKGPDK” the “soluble on expression in E. coli” value was “soluble”.
In the case of “MAHHHHHHMRRVVITGLGLVSPLASGVEETWKRLLAGESGARRVTEFEVDDLACQIACRIPVGDGTNGTFNPDLHMDPKEQRKVDPFIVYAVGAADQALDDAGWHPENDEDQVRTGVLIGSGIGGIEGIVEAGYTLRDKGPRRISPFFIPGRLINLASGHVSIKHKLRGPNHSVVTACATGTHAIGDAARLIAFGDADVMVAGGTESPVSRISLAGFAACKALSTERNDDPTAASRPYDEDRDGFVMGEGAGIVVLEELEHALARGAKIYAEVIGYGMSGDAFHITAPTESGEGAQRCMVAALKRAGIVPDEIDYINAHGTSTMADTIELGAVERVVGEAAAKISMSSTKSSIGHLLGAAGAAEAVFSTLAIRDNIAPATLNLDNPAAQTRIDLVPHKPRERKIDVALSNSFGFGGTNASLVLRRYTA”, the “soluble on expression in E. coli” value is reported as “soluble”.
For “MAHHHHHHMRSLTRIASAGVRLDNIDLIGCVGATAAAKLPYTWQVGKSFSDNSASAAAAGGRTTSKITGSVYAVHQQHLFLPLTIEIGFGVQMKHDKDEEYVSRLVGGVLVRVNSSGTYGMLLDSSRFIMAGSAEMIILSKGQAPILRTSR”, the “soluble on expression in E. coli” value was “not soluble”.
In the case of “MAHHHHHHMRVTHHNNNNERSADRPPPSPHPHSQYYRQRYSLFRKTHRHAALTCSTRSSSSSPAVQQLRVIHFFHSLRHATATQYSHTCSMRCILFSSLYLWRHRKVLQPAASWCWKKYGAATVRVSVWLYSRFNSSSTNGLAAAIPAGSFSSSPQNRGRLTGPSNGVTPCPMRSCAPPSHVPLRSRRRTQHPHAIAGKIGPST”, the “soluble on expression in E. coli” value is reported as “soluble”.
For “MAHHHHHHMSASAPRVGLLGAANIAWRAWTGVRANGMSVTRVGCRDVDRGRNFVKRVCDALKIDEAAVPAVCSYEELVSAADVDVVYIAIPVKARDHWVRECIKYKKHVVGEKPPATDAEMLRSWIEALDQQNLLYMDGTMLSHGKRVKEICAAVKQMGGPVKHIFANVTLGGDEAFLANNIRTNPELEPHGALGDLGWYCIRYALHLMDFQMPTEVTGRILKQNDKGAIISFIGDMTFEVGGEVALVSFFVSFEAAFEQTLHITTTEGMLQLDDMCLPMTSRPETVYYEVHNSSYDNVCESHNLHTEVKHTVNGDAPNSQCTELWGDVARILYADGEGDARRLKAKEESSRYWATVSWKTQAVMDKMLESALIGRNAAPTA”, the “soluble on expression in E. coli” value was “not soluble”.
With “MAHHHHHHMSETSACPLNDFFDIDEENNLDEIKKEEKDVFSGNFLSYIYNQFEFCCINFFDELKKKDKRKNITLKKNYSDGYSKNDNGQCYYNVFDKILKKDVDTIKEVSLHSIYFNPHADWCECAHEFNLELNHEEAEFCIFNFFLKMYRYEERNKDLLLSILLECLYSKKDMKKAFHIQKENLKFLKEIKNIETSNFKESLNELINIIENTNFIQFNANEKKDMQKYYFKLYIIIKIKYPYGIYIFNCDDVYDIVVIDCNTFMQNKPKIMSFLSLRKFISFLNNIYSININEENIYDSFPIIVYESKECYHLSHSHLPLNLTACTPKEKKKNSVKNHLNQSGNENENENKD” the “soluble on expression in E. coli” value was “not soluble”.
For “MAHHHHHHMSGKLEDIGELVLLIGDFHSPMRNLGLPDCFKDLLKTDKIKHVLCTGNVGCRENLELLKNIADSVHITKGDMDDEYDFPEDISLTIGDFKMSLIHGHQIIPWGDTNALLQWQKKHDSDIVISGHTHKNSIVRYEGKYFINPGSATGAFQPWLSQPTPSFILMAVAKSSIVVYVYEEKNGKTNVEMSELQK”, the “soluble on expression in E. coli” value was “not soluble”.
With “MAHHHHHHMSGPPKQCYYELLQVDRKASSEEIRQAYKKQALIHHPDKNYSNEQSTIEKFKDIQNAYAVLSDPDERAWYDAHRESILNGEDADSSQHEVNLYCYFTSRCFDGFDDNEGGFYSVYRKVFDQLIEDESEYSSNAKTWPRFGDSATSWSSVSKFYSHWRNFSSCKTFAWKDEYKVNEIPDRASRRMAERINQKLRTSAKKEYVQIVQGLTRFVHRRDPRVAAELTRQEEERRLKEEEREKRELEWAKNRREANEKLWAEAAEKEAEEERARIERGEAPDSCTLDLLYEKQRQCEEARKVKGGTNCGFAMLEDEHEDNLPEKKRSCPACKKQFKTDAQYKEHVNSSKHKAKLRQLSAKGVDIETLMNEEKDISTCV” the “soluble on expression in E. coli” value was “soluble”.
For “MAHHHHHHMSKAVQQIFEDYNRSRAQFTQSIYDMCLKAHHMEVIISTDIIMLLRPLILDKVPIVQQNATQILGKMASHSEEVALTILQNDVLPHLVYCLKHENKNYRKNCANTLRCLASHNAKLANLVAEEENCIDNLVDSLDEYDVRLKEACLNALCAIGKHDVDLSKQLMAKGIIPLVILSLQEKDTNLVRSSLNILTELSKHTNEIAKEVVDNNALPHLIKFLDHTDVQVKRYACNCLAQIAKHKEELTELIIESDVFPRVIYLLNDSDDVVKKNCANCLKEMSKHNEDICKIIARAGSLPFLCECIEQSSKGAVKLPAILCIGFIASFSESLSLNIILSNAIPILKKCLIGEEEDYIKASCVWAVGNIGKHSSSHAKKLSDENLLIILVNLYNANDSSDDLKKKVKLSFKGVIQKVTDLESLEPVFLKATAKLAKYCICQFAKIIPKSPAHKKAFIKSGCLKRLQVGRQSSCAIFPRCRVTVLPPYRPSAHPCTPSPLHRK”, the “soluble on expression in E. coli” value was “not soluble”.
For “MAHHHHHHMSLLRMCYRSIDITVKSRHARTFLKKRLMEQWAAKCKEPNPEKQRFYMDLAGSFLQALHTERNPKPGKVVNFQLSRQVAYEQKLADREKSAGARRVRRMSKEVKTQDH”, the “soluble on expression in E. coli” value was “not soluble”.

Reference: the DeepSol protein solubility set
